Test results taken from patent publication US20160031967A1 (Affibody, published 2016).

What was measured:
[1] = target: T1, human FcRn (Biorbyt, cat. no. orb84388) (human, UniProt P55899 24-297; P61769 21-119, limits assumed); assay: ELISA titration of biotinylated human FcRn, pH 6.0
T1 construct: Bought protein; Biotinylated in AlphaLISA and ELISA; also called biotinylated human FcRn
Method: (§1) ELISA KD analysis of FcRn binding Z variants: A selection of FcRn binders was subjected to an analysis of the response against a dilution series of biotinylated human FcRn using ELISA at both pH 6.0 and pH 7.4 as described above. […] As a background control, all Z variants were also assayed with no target protein added. […] Data were analyzed using GraphPad Prism 5 and non-linear regression and KD values (the half maximal effective concentration) were calculated.
(§2) Periplasm samples were incubated with a serial dilution of biotinylated human FcRn.

[2] = target: T1, human FcRn (Biorbyt, cat. no. orb84388); assay: ELISA titration of biotinylated human FcRn, pH 7.4
Method: as §1, §2

Row | Kd [1] [nM] | Kd [2] [nM] | Binder
1 | 1.2 | 2.3 | Z13586-ABD fusion (designed binder, domain: GA3; periplasmic Z-ABD fusion) AQHDEALEVDAKYAKELKDAGHEIRWLPNLTFDQRVAFIHKLRDDPSQSSELLSEAKKLNDSQAPKVDYVLAEAKVLANRELDKYGVSDYYKNLINNAKTVEGVKALIDEILAALPYVPG
2 | 1.4 | 2.2 | Z13783-ABD fusion (designed binder, domain: GA3; periplasmic Z-ABD fusion) AQHDEALEVDAKYAKEIEQAGHEIRWLPNLTFDQRVAFIHKLRDDPSQSSELLSEAKKLNDSQAPKVDYVLAEAKVLANRELDKYGVSDYYKNLINNAKTVEGVKALIDEILAALPYVPG
